Test results as given in PMC6130949, “The rational design of affinity-attenuated OmCI for the purification of complement C5” (The Journal of Biological Chemistry, 2018).
“And” between values parts separate entries of the source, which are not always exact repeats. Identical values can stand only once.

Columns and labels:
[1] = target: OmCI E141A/R47A (Ornithodoros moubata) (UniProt Q5YD59); experiment: SPR; single-cycle kinetics, Biacore 8K; OmCI amine coupled to a CM5 chip (~50 RU); C5 (CompTech) as analyte, 9-point 3-fold titration from 500 nM in HBS-EP, 40 ul/min, contact 230 s, dissociation 900 s; single-site binding model
[2] = target: OmCI F36W (Ornithodoros moubata) (UniProt Q5YD59); experiment: as above
[3] = target: OmCI H117A (Ornithodoros moubata) (UniProt Q5YD59); experiment: as above
[4] = target: OmCI H164A (Ornithodoros moubata) (UniProt Q5YD59); experiment: as above
[5] = target: OmCI M134G (Ornithodoros moubata) (UniProt Q5YD59); experiment: as above
[6] = target: OmCI E141A/H164A (Ornithodoros moubata) (UniProt Q5YD59); experiment: as above
[7] = target: OmCI E141A (Ornithodoros moubata) (UniProt Q5YD59); experiment: as above
[8] = target: OmCI D167A (Ornithodoros moubata) (UniProt Q5YD59); experiment: as above
[9] = target: OmCI R47A (Ornithodoros moubata) (UniProt Q5YD59); experiment: as above
[10] = target: OmCI E141A/R47A/H164A/L140G (Ornithodoros moubata) (UniProt Q5YD59); experiment: as above
[11] = target: OmCI E141A/L140G (Ornithodoros moubata) (UniProt Q5YD59); experiment: as above
[12] = target: OmCI E141A/R47A/L140G (Ornithodoros moubata) (UniProt Q5YD59); experiment: as above
[13] = target: OmCI L140G (Ornithodoros moubata) (UniProt Q5YD59); experiment: as above
[14] = target: Wildtype OmCI (Ornithodoros moubata) (UniProt Q5YD59); experiment: differential scanning calorimetry; C5 (CompTech) and OmCI mixed in 1:1.25 molar ratio, at least 6 h at 4 °C, PBS; heated 10-100 °C at 1 °C/min; n = 1
[15] = target: OmCI E141A/R47A (Ornithodoros moubata) (UniProt Q5YD59); experiment: SPR; multicycle kinetics, Biacore 8K; OmCI biotinylated on the N-terminal AVI tag and captured on an SA streptavidin chip (20-100 RU); C5 as analyte, 7-point 3-fold titration from 250 nM in HBS-EP, 30 ul/min, contact 240 s, dissociation 3600 s; regeneration with 0.1 M citric acid pH 2.0; single-site binding model
[16] = target: OmCI E141A/H164A (Ornithodoros moubata) (UniProt Q5YD59); experiment: as above
[17] = target: OmCI E141A (Ornithodoros moubata) (UniProt Q5YD59); experiment: as above
[18] = target: Wildtype OmCI (Ornithodoros moubata) (UniProt Q5YD59); experiment: as above
[19] = target: Complement component C5 from human serum (human (endogenous in human serum))
Complement component C5 = target: T1, Complement component C5 (UniProt P01031 19-673; P01031 678-1676); experiment: SPR; multicycle kinetics, Biacore 8K; biotinylated OmCI captured by its N-terminal AVI tag on an SA streptavidin chip; C5 as analyte, 7-point 3-fold titration from 250 nM in HBS-EP, 30 ul/min, contact 240 s, dissociation 3600 s; single-site binding model; values of the individual occasions (n=1 to n=4); conditions: both partners purified
T1 construct: complement C5 beta chain; complement C5 alpha chain; Commercial C5 from CompTech; source: bought: CompTech
T1 sequence (P01031 19-673, chain 1 of 2): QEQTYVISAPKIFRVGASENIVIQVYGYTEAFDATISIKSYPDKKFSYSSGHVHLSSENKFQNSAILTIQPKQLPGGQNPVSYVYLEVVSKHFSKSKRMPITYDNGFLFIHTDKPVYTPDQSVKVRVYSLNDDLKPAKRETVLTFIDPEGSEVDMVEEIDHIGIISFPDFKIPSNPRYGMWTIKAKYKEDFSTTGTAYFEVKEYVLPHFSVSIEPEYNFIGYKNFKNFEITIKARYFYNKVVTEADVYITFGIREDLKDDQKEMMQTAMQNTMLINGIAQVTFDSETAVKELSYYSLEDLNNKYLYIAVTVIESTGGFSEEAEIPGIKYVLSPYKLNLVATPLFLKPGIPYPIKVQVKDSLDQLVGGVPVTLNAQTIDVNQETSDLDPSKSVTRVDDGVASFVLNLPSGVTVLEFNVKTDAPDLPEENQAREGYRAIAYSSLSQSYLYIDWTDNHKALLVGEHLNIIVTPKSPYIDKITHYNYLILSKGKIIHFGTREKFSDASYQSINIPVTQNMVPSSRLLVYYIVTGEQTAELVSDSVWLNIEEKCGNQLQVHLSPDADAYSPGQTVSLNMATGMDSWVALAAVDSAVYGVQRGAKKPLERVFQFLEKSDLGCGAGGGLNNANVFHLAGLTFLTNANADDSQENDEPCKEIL
T1 sequence (P01031 678-1676, chain 2 of 2): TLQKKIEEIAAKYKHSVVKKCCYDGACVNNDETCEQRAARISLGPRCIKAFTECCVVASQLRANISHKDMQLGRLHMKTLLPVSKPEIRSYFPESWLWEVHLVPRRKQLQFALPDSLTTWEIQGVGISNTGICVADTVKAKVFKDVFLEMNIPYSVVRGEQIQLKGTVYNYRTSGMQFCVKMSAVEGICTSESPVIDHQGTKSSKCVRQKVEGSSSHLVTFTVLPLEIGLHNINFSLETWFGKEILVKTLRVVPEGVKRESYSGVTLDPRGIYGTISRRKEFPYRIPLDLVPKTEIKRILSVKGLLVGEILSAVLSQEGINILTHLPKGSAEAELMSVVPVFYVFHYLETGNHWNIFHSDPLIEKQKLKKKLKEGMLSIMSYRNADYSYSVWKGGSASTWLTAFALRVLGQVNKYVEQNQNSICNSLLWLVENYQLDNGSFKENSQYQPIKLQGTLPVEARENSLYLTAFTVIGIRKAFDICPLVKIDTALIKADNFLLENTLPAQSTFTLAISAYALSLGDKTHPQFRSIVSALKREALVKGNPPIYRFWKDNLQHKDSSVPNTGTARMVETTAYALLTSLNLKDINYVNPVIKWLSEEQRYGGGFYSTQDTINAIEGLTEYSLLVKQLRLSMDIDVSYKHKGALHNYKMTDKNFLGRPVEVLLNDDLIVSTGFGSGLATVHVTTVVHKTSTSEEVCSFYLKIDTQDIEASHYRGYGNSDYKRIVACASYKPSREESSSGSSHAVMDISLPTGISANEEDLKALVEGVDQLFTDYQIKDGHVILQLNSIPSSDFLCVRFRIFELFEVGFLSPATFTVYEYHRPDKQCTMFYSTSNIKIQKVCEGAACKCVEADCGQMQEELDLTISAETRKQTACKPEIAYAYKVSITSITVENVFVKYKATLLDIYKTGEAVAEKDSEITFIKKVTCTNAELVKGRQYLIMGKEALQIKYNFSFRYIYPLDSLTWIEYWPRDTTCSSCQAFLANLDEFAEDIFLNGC

Complement component C5 (CompTech) (natural protein)
approximate fold change in koff relative to WT OmCI [1]: 973 fold | approximate fold change in koff relative to WT OmCI [2]: 2.6 fold | approximate fold change in koff relative to WT OmCI [3]: 1.1 fold | approximate fold change in koff relative to WT OmCI [4]: 3.5 fold | approximate fold change in koff relative to WT OmCI [5]: 229 fold | approximate fold change in koff relative to WT OmCI [6]: 197 fold | approximate fold change in koff relative to WT OmCI [7]: 29.1 fold | approximate fold change in koff relative to WT OmCI [8]: 2.4 fold | approximate fold change in koff relative to WT OmCI [9]: 4.1 fold | approximate fold change in koff relative to WT OmCI [10]: 5500 fold | approximate fold change in koff relative to WT OmCI [11]: 31.3 fold | approximate fold change in koff relative to WT OmCI [12]: 1270 fold | approximate fold change in koff relative to WT OmCI [13]: 1 fold | ΔTm of the main C5 unfolding peak on complexing [14]: 8.6 °C | Kd [15]: 13.1 nM | koff [15]: 0.0318 s⁻¹ | kon [15]: 3.01e+06 M⁻¹ s⁻¹ | Kd [16]: 4.09 nM | koff [16]: 0.00406 s⁻¹ | kon [16]: 1.13e+06 M⁻¹ s⁻¹ | Kd [17]: 0.709 nM | koff [17]: 0.000304 s⁻¹ | kon [17]: 481000 M⁻¹ s⁻¹ | Kd [18]: < 0.1 nM | koff [18]: < 1e-05 s⁻¹ | kon [18]: 588000 M⁻¹ s⁻¹ | stoichiometry N [18]: < 1

Complement component C5 from human serum (natural protein)
Kd [18]: < 0.1 nM

OmCI E141A (from UniProt Q5YD59 19-168) (natural protein)
pIC50, alternative pathway (AP) complement activation ELISA (inhibition of MAC formation), OmCI titrated from 5 uM in human serum [19]: < 8.9 −log M

OmCI E141A/H164A (from UniProt Q5YD59 19-168) (natural protein)
pIC50, alternative pathway (AP) complement activation ELISA (inhibition of MAC formation), OmCI titrated from 5 uM in human serum [19]: 8.5 −log M

OmCI E141A/R47A (from UniProt Q5YD59 19-168) (natural protein)
pIC50, alternative pathway (AP) complement activation ELISA (inhibition of MAC formation), OmCI titrated from 5 uM in human serum [19]: 8 −log M

OmCI H164A (from UniProt Q5YD59 19-168) (natural protein)
pIC50, alternative pathway (AP) complement activation ELISA (inhibition of MAC formation), OmCI titrated from 5 uM in human serum [19]: < 8.8 −log M

OmCI R47A (from UniProt Q5YD59 19-168) (natural protein)
pIC50, alternative pathway (AP) complement activation ELISA (inhibition of MAC formation), OmCI titrated from 5 uM in human serum [19]: < 9 −log M

Wildtype OmCI (from UniProt Q5YD59 19-168) (natural protein)
pIC50, alternative pathway (AP) complement activation ELISA (inhibition of MAC formation), OmCI titrated from 5 uM in human serum [19]: < 9 −log M

B1: Wild-type OmCI with N-terminal 10xHis, TEV site and AVI tag (natural protein)
chain: DSESDCTGSEPVDAFQAFSEGKEAYVLVRSTDPKARDCLKGEPAGEKQDNTLPVMMTFKNGTDWASTDWTFTLDGAKVTATLGNLTQNREVVYDSQSHHCHVDKVEKEVPDYEMWMLDAGGLEVEVECCRQKLEELASGRNQMYPHLKDC
modifications: biotin on the N-terminal AVI tag (Bir-A)
notes: OmCI of Ornithodoros moubata, UniProt Q5YD59, without its signal peptide; No TEV cleavage is described; also called wt OmCI; OmCI WT; source: ExpiHEK 293, transfected, purified from supernatant (nickel-Sepharose Excel); not shown: AVI tag, N-terminal, kept
Kd (Complement component C5): < 0.1 nM | koff (Complement component C5): < 1e-05 s⁻¹ | kon (Complement component C5): 384000 M⁻¹ s⁻¹ and 400000 M⁻¹ s⁻¹ and 1.14e+06 M⁻¹ s⁻¹ and 432000 M⁻¹ s⁻¹

B2: OmCI E141A/R47A with N-terminal 10xHis, TEV site and AVI tag (natural protein)
chain: DSESDCTGSEPVDAFQAFSEGKEAYVLVASTDPKARDCLKGEPAGEKQDNTLPVMMTFKNGTDWASTDWTFTLDGAKVTATLGNLTQNREVVYDSQSHHCHVDKVEKEVPDYEMWMLDAGGLAVEVECCRQKLEELASGRNQMYPHLKDC
modifications: biotin on the N-terminal AVI tag (Bir-A)
notes: OmCI of Ornithodoros moubata, UniProt Q5YD59, without its signal peptide; source: ExpiHEK 293, transfected, purified from supernatant (nickel-Sepharose Excel); not shown: AVI tag, N-terminal, kept
Kd (Complement component C5): 17.6 nM and 7.26 nM and 9.55 nM and 18 nM

B3: OmCI E141A with N-terminal 10xHis, TEV site and AVI tag (natural protein)
chain: DSESDCTGSEPVDAFQAFSEGKEAYVLVRSTDPKARDCLKGEPAGEKQDNTLPVMMTFKNGTDWASTDWTFTLDGAKVTATLGNLTQNREVVYDSQSHHCHVDKVEKEVPDYEMWMLDAGGLAVEVECCRQKLEELASGRNQMYPHLKDC
modifications: biotin on the N-terminal AVI tag (Bir-A)
notes: OmCI of Ornithodoros moubata, UniProt Q5YD59, without its signal peptide; also called OmCI WT E141A; source: ExpiHEK 293, transfected, purified from supernatant (nickel-Sepharose Excel); not shown: AVI tag, N-terminal, kept
Kd (Complement component C5): 0.896 nM and 0.395 nM and 0.707 nM and 0.837 nM | koff (Complement component C5): 0.000307 s⁻¹ and 0.000328 s⁻¹ and 0.000273 s⁻¹ | kon (Complement component C5): 343000 M⁻¹ s⁻¹ and 830000 M⁻¹ s⁻¹ and 367000 M⁻¹ s⁻¹ and 386000 M⁻¹ s⁻¹

B4: OmCI E141A/H164A with N-terminal 10xHis, TEV site and AVI tag (natural protein)
chain: DSESDCTGSEPVDAFQAFSEGKEAYVLVRSTDPKARDCLKGEPAGEKQDNTLPVMMTFKNGTDWASTDWTFTLDGAKVTATLGNLTQNREVVYDSQSHHCHVDKVEKEVPDYEMWMLDAGGLAVEVECCRQKLEELASGRNQMYPALKDC
modifications: biotin on the N-terminal AVI tag (Bir-A)
notes: as for B2
Kd (Complement component C5): 5.13 nM and 5.35 nM and 1.8 nM | koff (Complement component C5): 0.00438 s⁻¹ and 0.00489 s⁻¹ and 0.00292 s⁻¹ | kon (Complement component C5): 855000 M⁻¹ s⁻¹ and 913000 M⁻¹ s⁻¹ and 1.62e+06 M⁻¹ s⁻¹
